Values of other authors, collected in article PMC3472031.

Assays:
SOS-E peptide = SOS-E peptide (UniProt Q07889)
SOS-A peptide = SOS-A peptide (UniProt Q07889)
[1] = target: EspFU peptide (Escherichia coli) (UniProt P0DJ88); test: ITC
EspFU (Escherichia coli) = EspFU (Escherichia coli) (UniProt P0DJ88)
[2] = target: EspFU R475 R475 (fifth 47-residue repeat) (Escherichia coli O157:H7) (UniProt P0DJ88)

Grb2 (from UniProt P62993)
Kd (SOS-E peptide): 3500 nM | Kd (SOS-A peptide): 54000 nM

IRTKS SH3 (from UniProt Q9UHR4)
Kd [1]: 500 nM

N-WASP 193-501 (from UniProt O00401)
Kd (EspFU (Escherichia coli)): 35 nM

N-WASPC 193-501 (from UniProt O00401)
Kd [2]: 35 nM
